# Experimental data from patent publication US5861254.
# Tests used:
# [1] = molecular target: T1, L-selectin-IgG1 Fc fusion (LS-Rg) (Homo sapiens) (UniProt P14151); experiment: filter; settings: 2'-F pyrimidines, 2'-OH purines
# T1 sequence: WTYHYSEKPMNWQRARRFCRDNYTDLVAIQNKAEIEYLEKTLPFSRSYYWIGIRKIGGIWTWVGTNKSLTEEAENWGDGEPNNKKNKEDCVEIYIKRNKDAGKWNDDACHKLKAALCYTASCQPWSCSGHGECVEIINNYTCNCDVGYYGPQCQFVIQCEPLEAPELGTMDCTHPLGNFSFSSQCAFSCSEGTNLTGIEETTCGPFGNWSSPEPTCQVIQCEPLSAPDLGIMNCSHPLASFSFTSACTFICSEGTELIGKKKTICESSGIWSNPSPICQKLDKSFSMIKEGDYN
# [2] = molecular target: T1, L-selectin-IgG1 Fc fusion (LS-Rg) (Homo sapiens); experiment: SPR; settings: 2'-F pyrimidines, 2'-OH purines, SHMCK buffer with Ca and Mg
sequence,measurement,setting,value
UCGGGCGGAAUUCAGGNNNNNNNNNNNNNNNNNNNNNNNNNNNNNNCCGCAUCGUCCUCCC [Flow Cell SELEX Rnd 3 pool],Kd,"[1]; nitrocellulose filter binding, pool plateau below 20% bound in final mixtures",0.16 nM
same,Kd,"[2]; ka 4.9e4, kd 1.9e-3",39 nM
UCGGGCGGAAUUCAGGNNNNNNNNNNNNNNNNNNNNNNNNNNNNNNCCGCAUCGUCCUCCC [Flow Cell SELEX Rnd 4 pool],Kd,"[2]; ka 7.5e4, kd 1.8e-3",24 nM
UCGGGCGGAAUUCAGGNNNNNNNNNNNNNNNNNNNNNNNNNNNNNNCCGCAUCGUCCUCCC [Flow Cell SELEX Rnd 2 pool],Kd,"[2]; ka 1.7e4, kd 1.8e-3",110 nM
UCGGGCGGAAUUCAGGNNNNNNNNNNNNNNNNNNNNNNNNNNNNNNCCGCAUCGUCCUCCC [Flow Cell SELEX Rnd 5 pool],Kd,"[1]; only slightly improved over round 3 (160 pM), plateau below 20% bound",< 1 nM
same,Kd,"[2]; ka 3.7e5, kd 1.5e-3",4.1 nM
